The values that follow come from patent US20150353909A1 (ACADEMIA SINICA, published 2015).

In test [1] the target is T1, Lys63-linked UB chains (Ub2-7) (UniProt P0CG48 1-76, isopeptide bond between the C-terminus of the distal UB and Lys63 of the proximal UB).
T1 construct: Bought mixture of chain lengths Ub2-7; also called K63-linked UB chains; K63-linked ubiquitin chains
The test is described as follows: GST pull-down, immunoblot. The text has this: (§1) The GST pull-down assay and the detection of pulled-down products by immunoblotting has been previously described (Fatimababy et al., (2010) FEBS J. 277, 796-816; Lin et al., (2011) Plant Cell 23, 2754-2773). The Lys48- and Lys63-linked UB chains (Ub2-7) were purchased from Boston Biochem.
On the technique in general: Immunoblotting shows a protein as a band on a membrane.

The target in test [2] is T2, Lys48-linked UB chains (Ub2-7) (UniProt P0CG48 1-76, isopeptide bond between the C-terminus of the distal UB and Lys48 of the proximal UB).
T2 construct: Bought mixture of chain lengths Ub2-7; also called K48-linked UB chains; K48-linked ubiquitin chains
Nature of the test: GST pull-down, immunoblot.
From the text: as §1

B1: GST-OTU4c (enzyme)
chain: MMICYSPITTCSRNAISIKRHLGSRLYGVVAHGSSKFSCYSLLSGLSRRHYTGFRVSVSNRPSSWHDKGLFGFAYTGVIVSLLVCYSSTSQSAYADSSRDKDANNVHHHSSDGKFHNGKRVYTDYSIIGIPGDGRCLFRSVAHGFCLRSGKLAPGEKMQRELADELRTRVADEFIQRRQETEWFVEGDFDTYVRQIRDPHVWGGEPELFMASHVLQMPITVYMKDDKAGGLISIAEYGQEYGKDDPIRVLYHGFGHYDALLLHESKASIPKSKL
notes: Full-length coding region in pET42, expressed in E. coli; also called OTU4c (GST tag); not shown: GST and His tags from pET42 vector
For B1, the binding result in test [1] and in test [2] was “no binding” throughout.

B2: GST-OTU3 (enzyme)
chain: MELKSSSNNNILEQLRNGFARFELVSSPTASVSDSISSTSLPASFISTTKGNSYVFFARINSSMNRSPAAKKVEKYAVDRVKGDGRCLFRALVKGMAFNKGITLNPQRERDDADELRMAVKEVICNDPKEREKYKEALVAITVDESLKRFCQRIGRHDFWGGESELLVLSKLCKQPIIVYIPEHEHGRGGGYGPGFIPIQEYGSEFRGGWGKGKTNKNVVRLLYSGRNHYDLLR
notes: Full-length coding region in pET42, expressed in E. coli; also called OTU3 (GST fusion); not shown: GST and His tags from pET42 vector
B2: the binding result in test [1] and in test [2] was “no binding” in each case.

B3: GST-OTU7a (enzyme)
chain: MAKTKQQKSKPKKQPHQKQGKDCDLSQFRAQLDALGLKIIQVTADGNCFFRAIADQLEGNEDEHNKYRNMIVLYIVKNREMFEPFIEDDVPFEDYCKTMDDDGTWAGNMELQAASLVTRSNICIHRNMSPRWYIRNFEDTRTRMIHLSYHDGEHYNSVRSKEDACGGPARPVVIEADAKVSAASKQAKATESKSKNKADKCHVNAGAIKVVMSGSCCDNTEKAEQVLLQVNGDVDAAIEFLIADQGMESLTENDTETASASDTINPKHASDSPMENTEQAREELIEEESASGNNSETVQAKCTTQTDDKKIPRNKTCPCGSKKKYKSCCGTATGRSSVKLLVSQTMESKKGRKNLRRGTSNEVEANAPDVGALCI
notes: Full-length coding region in pET42, expressed in E. coli; also called OTU7a (GST fusion); not shown: GST and His tags from pET42 vector
Take B3: the binding result in test [1] and in test [2] was “no binding” each time.

B4: GST-OTU9 (enzyme)
chain: MGYEPDPDALRWGLHDLEVCTLTNAGSCSSVTRYESGGGGTQGYVREGYNQPVTGYVDNDAVIAQFYQDELSRVARAEASGINSLSPTSVVAQDWPHPHQGQENQGEAIDITQESDILHNHNGNMEDKNVARIRFEGGQSSPSRDDDSVCSVEIEEESWSEVGKRLNQMIPIAHVPKINGELPSEDEQISDHERLFQRLQLYGLVENKIEGDGNCQFRSLSDQLYRSPEHHNFVREQVVNQLAYNREIYEGYVPMAYNDYLKAMKRNGEWGDHVTLQAAADLFGVRMFVITSFKDTCYIEILPHFQKSNRLICLSFWAEVHYNSIYPEGELPIPEGKKKKKYWVF
notes: Full-length coding region in pET42, expressed in E. coli; also called OTU9 (GST fusion); not shown: GST and His tags from pET42 vector
Consider B4, for which the binding result in test [1] and in test [2] was “no binding” each time.

B5: GST-OTU10 (enzyme)
chain: MVSHEENTSIVEWFLGPHPYTYPPYGIEMIHEDDEVAVAHHHHHHQSGEYYREYEDHRSSDVDNDEIIARTLQDDFLQLEIAESNDYSHQNQQQQHQQEGYTNNYSNNNNGYAWNDQSPAVDYSSEWIGNDNDQDGRSDDSVNVFSCSSPSDTDEYVYSWESDQCDADGEFGRRLNQMVPIPYIPKINGEIPPEEEAVSDHERLRNRLEMFDFTEVKVPGDGNCQFRALADQLYKTADRHKHVRRQIVKQLKSRPDSYQGYVPMDFSDYLRKMSRSGEWGDHVTLQAAADAYRVKIVVLTSFKDTCYIEILPTSQESKGVIFLSFWAEVHYNAIYLNRDTSETELQRKRKWWRFGN
notes: also called OTU10 (GST tag); not shown: GST and His tags from pET42 vector
As for B5, the binding result in test [1] and in test [2] was “no binding” in each case.
